First the molecules themselves.
B1: ZNF8 (parent)
chain: RTHTGEKPYTCSVCGKSFSRTTCL
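Further: lentivirally expressed fusions sorted by FACS into six bins by GFP to DsRed ratio, PSI derived from sequencing read proportions per bin multiplied by bin number.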

In this series the parent is B1. Kind of series: protein stability index of a GFP-peptide fusion (GPS, HEK-293T) (PSI 1-6); higher = more stable. The note with it: c terminus: a fixed tail appended.
As for RTHTGEKPYTCMVCGKSFSRTTCL [S12M], the protein stability index is 2.34.

RTHTGEKPYTCTVCGKSFSRTTCL [S12T]: the protein stability index is 2.52. As for RTHTGEKPYTCPVCGKSFSRTTCL [S12P], the protein stability index was 2.7. As to RTHTGEKPYTCEVCGKSFSRTTCL [S12E], the protein stability index came out at 2.72. In the case of RTHTGEKPYTCAVCGKSFSRTTCL [S12A] it was 2.96. For RTHTGEKPYTCCVCGKSFSRTTCL [S12C], the protein stability index stood at 2.13. Regarding RTHTGEKPYTCLVCGKSFSRTTCL [S12L], the protein stability index was 2.22. In the case of RTHTGEKPYTCIVCGKSFSRTTCL [S12I] it was 2.11; in that of RTHTGEKPYTCYVCGKSFSRTTCL [S12Y], 2.27. On to RTHTGEKPYTCKVCGKSFSRTTCL [S12K], for which the protein stability index was 2.13. On to RTHTGEKPYTCSVCGKSFSRCTCL [T21C], for which the protein stability index was 5.19. As for RTHTGEKPYTCSVCGKSFSRWTCL [T21W], the protein stability index is 1.72.

For RTHTGEKPYTCSVCGKSFSRLTCL [T21L], the protein stability index came out at 2.83. On to RTHTGEKPYTCSVCGKSFSRKTCL [T21K], for which the protein stability index turned out to be 2.4. The result for RTHTGEKPYTCSVCGKSFSRMTCL [T21M] reads 2.39. Consider RTHTGEKPYTCSVCGKSFSRNTCL [T21N], for which the protein stability index was found to be 1.99. In the case of RTHTGEKPYTCSVCGKSFSRVTCL [T21V] it was 2.36.

Take RTHTGEKPYTCSVCGKSFSRYTCL [T21Y]: the protein stability index was found to be 2.32. As to RTHTGEKPYQCSVCGKSFSRTTCL [T10Q], the protein stability index turned out to be 2.6.

On to RTHTGEKPYLCSVCGKSFSRTTCL [T10L], for which the protein stability index was 2.05. The result for RTHTGEKPYKCSVCGKSFSRTTCL [T10K] reads 2.15; that for RTHTGEKPYDCSVCGKSFSRTTCL [T10D], 2.43; that for RTHTGEKPYHCSVCGKSFSRTTCL [T10H], 2.75. For the variant RTHTGEKPYICSVCGKSFSRTTCL [T10I], the protein stability index amounted to 2.65. In the case of RTHTGEKPYTCSVCGKSFSRTTWL [C23W], the protein stability index worked out at 1.78. As to RTHTGEKPYTCSVCGKSFSRTTGL [C23G], the protein stability index was 2.43. In the case of RTHTGEKPYTCSVCGKSFSRTTAL [C23A] it was 2.21. Turning to RTHTGEKPYTCSVCGKSFSRTTQL [C23Q], the protein stability index came out at 2.24. In the case of RTHTGEKPYTCSVCGKSFSRTTPL [C23P], the protein stability index came to 2.63. Consider RTHTGEKPYTCSVCGKSFSRTTKL [C23K], for which the protein stability index came to 2.28. For RTHTGEKPYTCSVCGKSFSRTTVL [C23V], the protein stability index was determined as 1.59.

For the variant RTHTGEKPYTCSVCGKSFSRTTDL [C23D], the protein stability index is 2.46. Regarding RTHTGEKPYTCSVCGKSFSRTTTL [C23T], the protein stability index was 2.1. Consider RTHTGEKPYTCSVCGKSFSRTTFL [C23F], for which the protein stability index is 2.11.

For RTHTGEKPYTCSVCGKSFSRTTLL [C23L], the protein stability index worked out at 1.93. Take RTHTGECPYTCSVCGKSFSRTTCL [K7C]: the protein stability index is 2.72. For the variant RTHTGEFPYTCSVCGKSFSRTTCL [K7F], the protein stability index is 2.5.

For the variant RTHTGESPYTCSVCGKSFSRTTCL [K7S], the protein stability index is 2.47. Consider RTHTGEIPYTCSVCGKSFSRTTCL [K7I], for which the protein stability index turned out to be 2.15.

Consider RTHTGEPPYTCSVCGKSFSRTTCL [K7P], for which the protein stability index was 2.96.

On to RTHTGEEPYTCSVCGKSFSRTTCL [K7E], for which the protein stability index was 2.36. In the case of RTHTGEKPYTCSVCKKSFSRTTCL [G15K] it was 2.25; in that of RTHTGEKPYTCSVCRKSFSRTTCL [G15R], 2.17. In the case of RTHTGEKPYTCSVCLKSFSRTTCL [G15L], the protein stability index was 1.99. The result for RTHTGEKPYTCSVCQKSFSRTTCL [G15Q] reads 1.75. Take RTHTGEKPYTCSVCAKSFSRTTCL [G15A]: the protein stability index is 1.88. The result for RTHTGEKPYTCSVCVKSFSRTTCL [G15V] reads 1.73. With RTHTGEKPYTCSVCTKSFSRTTCL [G15T], the protein stability index worked out at 1.65. In the case of RTHTGEKPYTCSVCGKSFSRTTCF [L24F] it was 2.06; in that of RTHTGEKPYTCSVCGKSFSRTTCT [L24T], 3.08. As for RTHTGEKPYTCSVCGKSFSRTTCS [L24S], the protein stability index worked out at 2.06. Consider RTHTGEKPYTCSVCGKSFSRTTCA [L24A], for which the protein stability index amounted to 2.56. The result for RTHTGEKPYTCSVCGKSFSRTTCV [L24V] reads 3.06; that for RTHTGEKPYTCSVCGKSFSRTTCD [L24D], 3.21; that for RTHTGEKPYTCSVCGKSFSRTHCL [T22H], 2.24. The result for RTHTGEKPYTCSVCGKSFSRTLCL [T22L] reads 1.9. In the case of RTHTGEKPYTCSVCGKSFSRTKCL [T22K], the protein stability index was 2.97. Regarding RTHTGEKPYTCSVCGKSFSRTSCL [T22S], the protein stability index came out at 1.82. In the case of RTHTGEKPYTCSVCGKSFSRTMCL [T22M] it was 1.63; in that of RTHTGEKPYTCSVCGKSFSVTTCL [R20V], 2.02; in that of RTHTGEKPYTCSVCGKSFSMTTCL [R20M], 2.18. On to RTHTGEKPYTCSVCGKSFSFTTCL [R20F], for which the protein stability index worked out at 2.15.

As for RTHTGEKPYTCSVCGKSFSETTCL [R20E], the protein stability index turned out to be 3.14. The result for RTHTGEKPYTCSVCGKSFSHTTCL [R20H] reads 3.75; that for RTHTGEKPYTCSVCGKSFSLTTCL [R20L], 2.01; that for RTHTGEKPYTCSVCGKSFSKTTCL [R20K], 2.76. Regarding RTHTGEKPYTCSVCGKSFSCTTCL [R20C], the protein stability index amounted to 5.54.

Consider RTHTGEKPYTCSVCGKSFSATTCL [R20A], for which the protein stability index worked out at 2.55. For the variant RTHTGEKPYTCSVCGISFSRTTCL [K16I], the protein stability index stood at 1.74. As for RTHTGEKPYTCSVCGLSFSRTTCL [K16L], the protein stability index was 2.09. In the case of RTHTGEKPYTCSVCGHSFSRTTCL [K16H], the protein stability index stood at 1.99. The result for RTHTGEKPYTCSVCGNSFSRTTCL [K16N] reads 2.58. For RTHTGEKPYTCSVCGASFSRTTCL [K16A], the protein stability index came to 1.85. As for RTHTGEKPYTCSVCGRSFSRTTCL [K16R], the protein stability index amounted to 2.45.

Turning to RTHTGEKPYTCSVCGQSFSRTTCL [K16Q], the protein stability index came out at 2.6. RTHTGEKPYTCSVCGPSFSRTTCL [K16P]: the protein stability index was found to be 1.81. Take RTHTGEKPYTCSVCGCSFSRTTCL [K16C]: the protein stability index worked out at 2.16. As for RTHTGEKPYTCSVCGTSFSRTTCL [K16T], the protein stability index turned out to be 1.94. The result for RTHTGEKSYTCSVCGKSFSRTTCL [P8S] reads 2.17; that for RTHTGEKCYTCSVCGKSFSRTTCL [P8C], 2.81. With RTHTGEKEYTCSVCGKSFSRTTCL [P8E], the protein stability index came out at 2.95. On to RTHTGEKRYTCSVCGKSFSRTTCL [P8R], for which the protein stability index came to 2.46. Consider RTHTGEKYYTCSVCGKSFSRTTCL [P8Y], for which the protein stability index came out at 2.95. The result for RTHTGEKLYTCSVCGKSFSRTTCL [P8L] reads 3.12; that for RTHTGEKKYTCSVCGKSFSRTTCL [P8K], 2.04. For RTHTGEKDYTCSVCGKSFSRTTCL [P8D], the protein stability index was 2.78.

Consider RTHTGEKTYTCSVCGKSFSRTTCL [P8T], for which the protein stability index was found to be 2.86. In the case of RTHTGEKGYTCSVCGKSFSRTTCL [P8G], the protein stability index was found to be 2.9. For RTHTGEKPYTFSVCGKSFSRTTCL [C11F], the protein stability index amounted to 2.23. Consider RTHTGEKPYTRSVCGKSFSRTTCL [C11R], for which the protein stability index is 2.39. Take RTHTGEKPYTDSVCGKSFSRTTCL [C11D]: the protein stability index is 2.83. In the case of RTHTGEKPYTVSVCGKSFSRTTCL [C11V] it was 2.24; in that of RTHTGEKPYTCSVCGKHFSRTTCL [S17H], 2.69. Consider RTHTGEKPYTCSVCGKYFSRTTCL [S17Y], for which the protein stability index was 2.14.

Source of the values: the supplement of paper PMC10567573.
